Assay results from US20130261012A1 (published 2013).

Molecular target: S3
Experiment: apparent affinity of recombinant chimeric mAb, cell binding

B1: FZD10 (receptor)
chain: ISSMDMERPGDGKCQPIEIPMCKDIGYNMTRMPNLMGHENQREAAIQLHEFAPLVEYGCHGHLRFFLCSLYAPMCTEQVSTPIPACRVMCEQARLKCSPIMEQFNFKWPDSLDCRKLPNKNDPNYLCMEAPNNGSDEPTRGSGLFPPLFRPQRPHSAQEHPLKDGGPGRGGCDNPGKFHHVEKSASCAPLCTPGVDVYWSREDKRFAVVWLAIWAVLCFFSSAFTVLTFLIDPARFRYPERPIIFLSMCYCVYSVGYLIRLFAGAESIACDRDSGQLYVIQEGLESTGCTLVFLVLYYFGMASSLWWVVLTLTWFLAAGKKWGHEAIEANSSYFHLAAWAIPAVKTILILVMRRVAGDELTGVCYVGSMDVNALTGFVLIPLACYLVIGTSFILSGFVALFHIRRVMKTGGENTDKLEKLMVRIGLFSVLYTVPATCVIACYFYERLNMDYWKILAAQHKCKMNNQTKTLDCLMAASIPAVEIFMVKIFMLLVVGITSGMWIWTSKTLQSWQQVCSRRLKKKSRRKPASVITSGGIYKKAQHPQKTHHGKYEIPAQSPTCV
Kd: > 40 nM
